From the nanobody polyreactivity screen of Harvey et al. (2022)

Assay: yeast display, Sf9 membrane polyspecificity reagent, FACS + sequencing; frameworks hold sequencing errors
How it was run: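 Synthetic nanobody libraries on Saccharomyces cerevisiae BJ5465 were galactose-induced for 36–48 hours, stained 1 hour at 4 °C with 10% biotinylated, detergent-solubilized Sf9 membrane reagent and enriched on streptavidin microbeads. FACS then separated cells into low and high (top ~1%) gates by anti-HA (expression) and streptavidin (reagent binding) fluorescence. Genes were colony-PCR amplified, MiSeq 2 × 250 sequenced and CDR-length filtered. A clone's polyreactivity label is that of its gate of origin.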

QVQLVESGGGLVQAGGSLRLSCAASGRIFYNYGLGWYRQAPGKERELVARITTGGRTNYADSVKGRFTMSRDNAKNTVYLQMNSLKPEDTAVYYCNADGYHSRWYYYNYDYWGQGTQVTVSS
polyreactivity (PSR sort gate): low polyreactivity

QVQLVESGGGLVQAGGSLRLSCAASGSIFYSYAMGWYRQAPGKERELVAAITSRTGNTYYADSVKGRFTISRDNAKNTVYLQMNSLKPEDTAVYYCAAKLVNALLHYRIWNHNNYWGQGTQVSVSS
polyreactivity (PSR sort gate): low polyreactivity

QVQLVESGGCLVQAGGSLRLSCAASGITLRYYAMGWYRQAPGKERELDAAISSGGRTYYADSVKGRFTISRDNATKTVYLPLNSLKPEETAVYYCNVVWSVTYDYWGHGTQVTVSS
polyreactivity (PSR sort gate): high polyreactivity

QVQLVESGGALVQAGGSLRLSCAASGYIFRYYAMGWYRQAPGKVREFVAAISRNGGSKSYADSVKGRFTISRDNAKNTVYLQMISLKPEDTAVYYCNKRVGFLYKSDYWGQGTQVTVSS
polyreactivity (PSR sort gate): high polyreactivity

QVQLVESGGGLVQAGGSLRLSCAASGSTAYVMGWYRQAPGKETELVAAISKSGGSTYYADSVKGRFTISRDNAKNTVYLQMNSLKPEDTAVYYCSALYPTTTAYRYGYWGQGTQVTVSS
polyreactivity (PSR sort gate): high polyreactivity

QVQLVESGGGLVQAGGSLRLSCAASGRIFGVYAMGWYRQAPGKERELVAAISSTGDRTYYADSVKGRFTISRDNAKNTVYLQMNSLKPEDTAVYYCAARPAYRSSYYWGQGTQVTVSS
polyreactivity (PSR sort gate): high polyreactivity

QVQLVESGGGIVQAGGSLRLSCAASGTLGSYRQAPGNEWELVAAISQSGGSTYYADSVKGRFTISRDNAKNTVYLQMNSLKPEDTAVYYCAVDPRYGHPRRDYWGQGTQVTVSS
polyreactivity (PSR sort gate): low polyreactivity

QVQLVESGGGLVQAGGSLRLSCAASGRTFRYYVMGWYRQAPGKERELVAAINRRGDNTYYADSVKGRLTISRDNAKNTVYLQMNSLKPEDTAVYYCAARREPYQYNQYYSWGQGTQVTVSS
polyreactivity (PSR sort gate): high polyreactivity

QVQLVETGGGLVQAGGSLRLSCAASGRIYYVYDMGWYRQAPGKERELVAAISWSGGSTSYADSVKGRFTISRDNAKYTVYLQMNSLKPDDTAVYYCAATSAIGWGYDYWGQGTQVTVSS
polyreactivity (PSR sort gate): low polyreactivity

QVQLVESGGGLVQAGGSLRLSCAASGSTFVRNAMGWYRQAPGKERELVAAITSSGGSTYYADSVKGRFTISRDNAKNTVYLQMNSLKPEDTAVYYCAKRRYYRYDYWGQGTQVTVSS
polyreactivity (PSR sort gate): low polyreactivity

QVQLVESGRGLVQAGGSLRLSCDSSGLTFTYNAMGWYRQAPGKERELVAVISYGGGSTYYADSVKGRFTISRDNAKNTVYLQMNSLNPEDNAVYYCAAVYGGYLYYYGGYAEYDYWGQGTQVTVSS
polyreactivity (PSR sort gate): low polyreactivity

QVQLIESGGGLVQAGGSLRLSCAASGRTFRYNAMGWYRQAPGKERELVAGISTGGSTYYADSVKGRFTISRDNAKNTVYLQMNSLKPEDTAVYYCARYYHARPNGPRSDDYDYWGQGTQVTVSS
polyreactivity (PSR sort gate): low polyreactivity

QVQLVESGGGLVQAGGSLRLSCAPSGYIFPFNALGGYRQAPGKERELVAAINNGGRTYYADSVKGRFTISRDNAKNTVFLQMHSLKPEDTAVDSCAAGSKSDMDWGQGTQVTVSS
polyreactivity (PSR sort gate): low polyreactivity

QVQLVESGGGFVQAGGSLRLSCAASGLIFGRYGLGWYRQAPGKAREFVAAITQSGGATYYADSVKGRFTISRDNAKNTVYLQMNSLKPEDTAVYYCNAPIAYWRVHDKYGYWGQGTQLTVSS
polyreactivity (PSR sort gate): low polyreactivity

QVQLVESGGGLVQAGGSLRLSCAASGRTFRTYAMGWYRQAPGKERELVAITTSGGSTYYADSVKGRFTISRDNAKNTVYLQMNSLKPEDTAVYYGAAQWRSYYDQYGYDYWGQGTQVTVSS
polyreactivity (PSR sort gate): low polyreactivity

QVQLVESGGGLVQAGGSLRLSCAASGRIFEPYAMGWYRQAPGKERELVAAITSGGSTDYADSVKGRFTISRDNAKNTVYLQMNSLKPEDTAVYYCAAETVWRLDYWGQGTQVTVSS
polyreactivity (PSR sort gate): low polyreactivity

QVQLVESGGGLVQAGGSLRLSCAASGSIFDYYAMGWYRPAPGKERELVAAISDSGGSTYYADSVKGRFTISRDNAKNTVYLQMNSLKPEDTAVYYCNAVPRYQATWQESYDYDYWGQGTQVTVSS
polyreactivity (PSR sort gate): high polyreactivity

QVQLVESGGGLVQAGGSLRLSCAASGSIFTLYAMGWYRQAPGKEREFVAGISFSTGRTYYADSVKGRFSISRDNAKNTVYLQMNSLKPEDTAVYYCAAYVSHYWYGVYRDGYWGQGTQVTVSS
polyreactivity (PSR sort gate): low polyreactivity

QVQLVESGGGLVQAGGSLRLSCAASGFTFHYNAMGWYRQAPGKERELVAAITSGGSTYYADSVKGRFTISRDNAKNTVYLQMNSLKPEDTAVYYCNKLYYRYHHNYDYWGQGTQVTVSS
polyreactivity (PSR sort gate): high polyreactivity

QVQLVESGGGLVQAGGSLRISCAASGSTFGSYTMGWYRQAPGKERELVAAIRGGGSTYYADSVKGRFTISRDNAKNTVYLQMNSLKPEDTAVYYCAALSPRRYNPRYGFDYCGQGTQVTVSS
polyreactivity (PSR sort gate): high polyreactivity

QVQLVESGGGLVQAGGSLRLSCSASGGTFITNAMGWYRQAPGKERELVAAITSGGRTTYADSVKGRFTISRDNAKNTVYLQMNSLKPEDTAVYYCAADHVYSYTYNFDYWGQGTQVTVSS
polyreactivity (PSR sort gate): low polyreactivity

PVQLVESGGGLVQAGGSLRLSCAASGSIFAVNALGWSRQAPGKERELVAAITSGGNTYYADSVKGRFTISRDNAKNTVYLQMNSLKPEDTAVYDCATVFSVQGWYFGMNYWGQGTQVTVSS
polyreactivity (PSR sort gate): low polyreactivity

QVQLVESGGGLVQAGGSLRLRCAASGMGWYRQAPGKEWEKVATITWSDGITYADSVKGRFTISRDNAKNTVYLQMNSLKPEDTAVYYCNADWDQTGTVFYSFGLREMDSWGQCTQVTVSS
polyreactivity (PSR sort gate): low polyreactivity

QVQLVESGGGLVQAGGSLRLSCAASGSTFGSNAMGWYRQAPGKERELVATITRRSGSTYYADSVKGRFTISRDNAKNTVYLQMNSLKPEDTAVYYCARVGFWLQYDYWGQGTQVTVSS
polyreactivity (PSR sort gate): high polyreactivity

QVQLVESGGGLVQAGGSLRLSCAASGRIFYYYAMGWYRQAPGKERELVATISRSGGSTYYADSVKGRFTISRDNAKNTVYLQMNSLKPEDTAVYYCAAGYGPSGYTRYYWGQGTQVTVSS
polyreactivity (PSR sort gate): high polyreactivity

QVQLVESGGGLVQAGGSLRLSCAASGIIIRYYGMGWYRQAPGKERELVARIRWTGGSTYYADSVKGRFTISRDNAKNTVYLQMNSLKPEDTAVYYCAADIWQYSRIANYHPYDYWGQGTQVTVSS
polyreactivity (PSR sort gate): low polyreactivity

QVQLVESGGGLVQAGGSLRLSCAASGRIFGLYAMGWYRQAPGKERELVAAITLSGDGTDYADSVKGRFTISRDNAKNTVYLQMNSLKPEDTPVYYCAKVGQYWWNMDYWGQGTQVTVSS
polyreactivity (PSR sort gate): low polyreactivity

QVQLVESGGGLVQAGGSLRLSCAASVKIFAWYALGWYRKAPGKEMELVADISSRGGSTYYADSVKGRFTISRDNAKNTVYLQMNSLKPEDTAVYYCAAVWYWTQDYDYWGQGTQVTGSS
polyreactivity (PSR sort gate): low polyreactivity

QVHLVESGGGLVQAGGSLRLSCAASGFTFVRYAMGWYRQAPGKERELVASISYSGGSTYYADSVKGRFTISRDNAKNTVYLQMNSLKPEDTAVYYCAALHRINTLLLPMDYWGQGTQVTVSS
polyreactivity (PSR sort gate): high polyreactivity

QVQLVESGGGLVQAGGSLRLSCAASGRTLPSNTMGWYRQAPGTERELVAAISKNGGSTYYADSVKGRFTISRDNAMNTVYLQMNSLKPEDTAVYYCNARYLYGRYRSPLDDYWGQGTQVTVSS
polyreactivity (PSR sort gate): high polyreactivity

QVQLVESGGGLVQAGGRLRLICAASGFTFGGNVMGWYRQAPGKERELVAAISSSGGSTYYADSVKGRFTISRDNAKNTVYLQMNSLKPEDTAVYYCAKYAVFYQYRYYHWGQGTQVTVSS
polyreactivity (PSR sort gate): high polyreactivity

QVQLVESGGGLVQAGGSLRLSCAASGNIFVLYAMGWYRQAPGKERELVASITSDGITYYADSVKGRFTISRDNAKNTVYLQMNSLKPEDTAVYYCAVDRSYRYLPRGDYWGQGTQVTVSS
polyreactivity (PSR sort gate): low polyreactivity

QVQLVESGGGLVQAGGSLRLTCAASGLTFFYYAMGWYRQAPGKERELVAGISRSGGSTYYADSVKGRFTISRDYAKNTVYLQMNSLKPEDTAVYYCAKRTLVASYIYREGEYWGQGTQVTVSS
polyreactivity (PSR sort gate): high polyreactivity

QVQLVESGGGLVQAGGSLRLSCAASGGTFYHYAMGWYRQAPGKERELVAAISWGGGSTYYADSVKGRFTISRDNAKNTVYLQMNSLKPEHTAVYYCAARRGFRFRDYYWGQGTQVTVSS
polyreactivity (PSR sort gate): high polyreactivity

QVHLVQSGGGLVQAGGSLRLSCAASGRIFKFYAMGWYRQAPGKEMELVATISRGGSTYYADSVKGRFTISRDNAKNTVYLQMNSLKPEDTAVYYCAKQRERYYWFGAWSYDYWGQGTQVTVSS
polyreactivity (PSR sort gate): low polyreactivity

QVPLVESGGGLVQAGGSLRISCAASGSTIVGYSMGWYRQAHGKERELVADITSGGGITYYADSVKGRFTISRDNAKNTVYLQMNSLKPEYSAVYYCAARVVEIFHWAGDYWGQGTQVTVSS
polyreactivity (PSR sort gate): low polyreactivity

QVQLVESGGGLVQAGGSLRLSCAASGFTFTTNAMGWYRQAPGKEREFVAAISRSGGSTDYADSVKGRFTISRDNAKNTVYLQMNSLKPEDTAVYYCNADPRLRQTRDYWGHGTQVTVSS
polyreactivity (PSR sort gate): high polyreactivity

QVQLVESGGGLVQAGGSLRLSCAASGYIFRSYAMGWYRQAPGKERELVATISWIGGGTSYADSVKGRFTISRDNAKNTVYLHMNSLIPVDTAVYYCAAGPWAYGRRHAYYSRSFDYWGQGTQVTVSS
polyreactivity (PSR sort gate): high polyreactivity

QVQLGDSGGGLVQAGGSLRISCAASGNTFLYYGMGWYRQAPGKDRDLVAAITQSGGTTYYADSVHGRFTISRDNAKYTVYLQMNSQKPEDTAVYYCGATRYYYYTYVYDDRGDYWGQGTQVTVSS
polyreactivity (PSR sort gate): low polyreactivity

QVQLVESGGGLVQAGGSLRLSCAASGRTFGPYVMGWYSQAPGKDRELVAVIRWSGVSTYYADSVKGRFTISRDKAKNTVYLLRNSMTPEDTAVDYCNAVRPYRLASYDYWGQGTQVTVSS
polyreactivity (PSR sort gate): high polyreactivity

QVQLVESAGGLVQAGGSLRLSCAASGSIFQGNARGWYRQAPGKERELVAAISQSGGRTYYADSVKGRFTISRDNAKNTVYLQMISLKPEDTAVYYCNTTKVYRLRFDYWGQGTQVTVSS
polyreactivity (PSR sort gate): low polyreactivity

QVQLVESGGGLVQAGGSLRISCAASGSIFYPYAMGWYRQAPGKERELVAGITYRAGSTYYADSVKGRFTISRDNAKNTVYLQMNSLKPEDTAVYYCAASESYAFDWGQGTQVTVSS
polyreactivity (PSR sort gate): high polyreactivity

QVQLEESGGGLVQAGGSLRLSCAASGSIFVYYARGWYRQAPGKERELVATISRRGGSTYYADSVKGRFTISRDNAKNTVYLQMTSLKPEDTAVDYCNAAPSPVGSARSSLTRYTGMDYWGQGTQVSVSS
polyreactivity (PSR sort gate): high polyreactivity
